{
  "source": "the NTF2 design screens of Basanta et al. (2020)",
  "data": [
    {"experiment": "protease stability score; higher = more stable; yeast display proteolysis, trypsin and chymotrypsin;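 further: log10 excess protease needed over predicted unfolded state with 0 meaning unfolded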", "values": [
      {"sequence": "DKEVEEVWKKMLTAQKYGDEKRYKDLADPNVKYNIGDKKIDGRDTYAEEMKKRRDEIRLRMQITDVKQQGDKLHVRFKIEAEINGKPISEDVTAVLVNHNGKVKHYSMHVPHEFFKKQQK", "protease stability score": 0.213},
      {"sequence": "DEKLLKRLEEFWKAVRKGNKQEIEEYADPNVRFQIGDKQVHGRENAKKYFHDERREIRIEYHDLKVRVRGDRIEIRYTVQYTHNGQPTERHYDIEIVLNGEKMKSMSVRTDR", "protease stability score": -0.026},
      {"sequence": "DKEELQHLIRLEEHNDWDKFARQAPPNATLQVGDRVVHGREEAVKFAEKLKKRVDHISIESIDRRGEKLQIVYTMVVDGKRVKAVVVLRASNGRAQSVVFQARDPHDQQVIKENLS", "protease stability score": 0.178},
      {"sequence": "DSQERADDWMRDFNRAVQHGDPTQLTDLMDKDANARIGDTSVHGRHHLVTRWQQFRTDVDRVDIHIVSIEVQGDKIHIDMTFQADVNGRRKEDHIVIIAVDRNGKVKVQQIQDK", "protease stability score": -0.337},
      {"sequence": "DHKEARDVAQTMMHLLKHGDFEQIVRNADPNAHFVVGDKEYHGRDNLRKVLKRLHDQVDHISFRTYKVDEDTAKLDATVQINGRNYRMDVLVHFHNGRIKDLNIKVTDEDTQREADK", "protease stability score": 2.08},
      {"sequence": "DSDEIRKFFQQLHTNDEKKLRRNFDKDARFEVGDKDYHGQENAQEAMAQIFQRADHVTYKTVKVEGDKVDMNLQIQVNGKQFDLRLHAKFDNGRLKEASLHVTSEEQHTEVLEMLS", "protease stability score": 0.643},
      {"sequence": "DEEKMKEFVKNLNTGNNHRLRKMMDEDVKVVVGDKRYKGDEQAAQFWRRILEQADDIRVNDFKVSGNTAHVDVVINWNGKHIVLDVHVEIHNGKVKQIRIEVRDEEVKRAQEEMES", "protease stability score": 1.25},
      {"sequence": "DTEVQQRVEHYLRLREYNSPEHLIEMVDPNAKIEIGNKEFHGMENYAHTMRKRVEEWRLEIKHISVTIRNGRVVARIDQEVDIDGNPVRYTYKVVYDAHNGNIKHIKNDVDPRQQQQQHK", "protease stability score": 0.176},
      {"sequence": "DETNRKQASRVLENLQTGDPRQVSELVDPNARVTVGDKQVTGRENIMQRVKHELDQSRIQIDHYEIDDKGESADLRMTQQVDHNGNPTRTKYQVEVEAENGKIKEITIEERS", "protease stability score": -0.271},
      {"sequence": "DEDQLRNIAHKLNEVWQNGDPDEMKKLLDPNVKFRYGDKTVQGMNEYVTILREMVKRIDHAHVRDFTAHNGRIDIDIQFDVNGRTVSAKVSYVVDNGKVKRAKFDPKNMKKLQS", "protease stability score": 0.036},
      {"sequence": "DEHLHKAVNQLWHAIKTNDPDKVQELADPNVRIQVGDKEIHGREEFAHQVRRTREQMRVRIDIKQVDVQGNKVDIEYDYEYNVNGQPRSDRVTAVFVLHNGKVQRMHIHISEEQLRQQEK", "protease stability score": 0.886},
      {"sequence": "DDRQVERLAKEVVKNLETGNPNEFMKLMDPNAKFEVGDQDIHGREQWSEWVDHLSKHVDSLEVKSVTAHNGRVDIDMVFRVNGEKRVVKIVITVKNGHIKEMEIREQ", "protease stability score": 1.2},
      {"sequence": "DEKDVRRLSKYLRALQKNDPDEVRRMADPNAKAEVGDKRIHGRDEFSKHVETRRRQMRITIEHYEIKNQGDKVELNVVRRSEHNGKPRRNSVRATYVFDNGKIHSYSVKHVP", "protease stability score": -0.133},
      {"sequence": "DEKKEEQWVRDVKKHAETGNWHDFWRQADPNVRFQVGDTTLRGREEAVKVAEDMRRQVDHQRVEHVDAHNGKVTVDAVLDINGRQQKVEYVVEMHNGRIKRINFSYS", "protease stability score": -0.142},
      {"sequence": "DEKHAHKIVRAWSQGDPDQLAELADPNVRLVVGDKTYDGRESFVKWLKDLRKRIDHVRVDSVKINGNKIEIDMRFQVDGVHLVVTVDIEFKNGKIKDVRIQYRDEEQLKDIKKVVR", "protease stability score": 1.2},
      {"sequence": "DEENVKKVQEQLERNDREKLKSNVDKNAEVRVGDKTYHGREDAKTVLEQLARQVDNMQWQSIRIKGEHIDAKMVVQINGKHIQVSIELTVHNGKISHFVIHARNEEVNETLKEAVD", "protease stability score": 0.516},
      {"sequence": "DDEERRKLADDLIKILQTGSSNDVRKLVDPNAKAHYGEKDFHGERELAKFMKEIADNVDHIEIETMEVHGDRVKIVMVIVHNGKQRRFVMVLVVHNGRIKKASQTSQ", "protease stability score": 1.46},
      {"sequence": "DEKRALEVIKRYAEYLKRGNADEARKMGKEGVEAEFGDTHVHGADQVKEYVKKVKDVGAHVEYKEVEYKGDTVTVKTEVTRGDAKVTFEVKYQAKGDKVVNLEMKFNKEQMKEFKKS", "protease stability score": -0.015},
      {"sequence": "DETDLLRKLIHHLKTAVDEGDPDKYVKNFDPNAKIDVGDKQWHGHDEIRKKMEDLVRQADHVRLTIDHMQVQGDKFNIHATIKYDNNGEDVERKFVLTATKKGDKAKAEFVTEQ", "protease stability score": 0.895},
      {"sequence": "DEKDNKTYADKVAEMLKHNDPRTARELVDPNAKVQVGDSEVHGREQIENLIKTWNEQVDHVEIKKYRVEGDKVEITFVAESNGKRTHFKVVLKVRNGRATHMTIKRK", "protease stability score": 0.157},
      {"sequence": "DEDSHKKLLEEMKDILNHGNFKNMLELADKNVRMQVGDKQYTGHSEFEDFLEHQRRQIDHLQVTDFKVSGENLVLTATANVNGKHVTIRFVVFFENGKMVRMEVDPSFQKQLES", "protease stability score": 0.87},
      {"sequence": "DEERVRKVVEKLVDAVTRGDKDDIKKMLKKHVEFKLVDQEYKGVDQAVKVVKELHDYGMEVHVKEVRVKGDTAHATTVWKKGNTEAHVKVEYHVRDDKVEKVKIQWTEEAQKALKHG", "protease stability score": 0.283},
      {"sequence": "DEEKILRVLKEVVKAIQNGNKEEVRKKGKPDVEVQLADERNRGVDQLVRLAEFDKKLGVQFEYKETRQKGGKMTTVVEVTLDGTTIRYEVHVEAEGGKVKRWEVRMDKKFIRIAQES", "protease stability score": 0.077},
      {"sequence": "DKSMQEEMERVARENDFHRLAELADPNVKWQYGDKHLHGRTAQREFVRLNHEAVDHLEVQDVKFHGENVEIDLVMTVNGKEIKVVLQAHVHNGRIKEMRWQVTNEDEKRKLEEAVS", "protease stability score": -0.183},
      {"sequence": "DEKQVLELIRDVMKHVQNGNQEEVKKHGKPSVEVILFNERYTGPEALVRLAEFAQKLGAQFEYKETRHEGNKVKTKVEVTFGGTTVRYEVEVEAEGGKVVKWEVRASDEFDERVKKS", "protease stability score": 1.09},
      {"sequence": "DEEDLKTAHRRQRTNDFDRIRNKADKDAHVQVGDTQVHGREEVKKFMTLLKKRVDHVEIHDIEKKPGRLVVELRMNVNGQEIDLVVMFQFKNGSLKHMRFKVRDEDDKRKLEKALS", "protease stability score": 0.432},
      {"sequence": "DEDEVRKIAEDVLRIIETGNPDDAMEQADENAEVIVGDKTYSGRTELRKVIHHMREKVDHMQVKSYDAHGNKATAVFILDNNGRKDEHVVYFDFHNGRLKKVNIQKK", "protease stability score": 0.243},
      {"sequence": "DEHNVHKVKSMIRAMKTGDEETAQRLADPNVHVKIGDHTLQGRSQLKEYVKKLKTQAKFDFREVDAQDHNGHVKVNVDVVARINGKPVRYEVIIHVTFHNGKIKSAEYQVPQDYLDTLES", "protease stability score": 0.522},
      {"sequence": "DESIMNMMHQLIDAMETNDPEKMKRLADKDATFVYGDKTVHGRHQAEEWIHKVKKHQRFRIDLRDVKADNGRVTVNAQIDQNHNGQPSQRTVDAKAEVSNGRVKHASVRRTS", "protease stability score": -0.117},
      {"sequence": "DEHNMKLASRLVRAVQTNDPDQWVRNVDKNVRVQVGDKTVHGREEFHRQMEKKAREMRYEVQMDQVTVHGDKVRIDITERSNVNGRPHHKRAEMIVHVSNGKVQRVEVQDRK", "protease stability score": -0.162},
      {"sequence": "DEEDEKHIDDVLKQGDFDEMARNADKDATVRIGEKEYRGREDVVRMLEIIHKRADEVHVDSVRVTNGRLKMDVVFDVNGVQANVILVINVHNGKIKNITLKYRNEELSRKLDKILR", "protease stability score": 0.821},
      {"sequence": "DDEVLDDLVRLIKDNDWEQMANNADKDVKIQIGDKTWHGREQVEEVMRRMQETIDHLDIRSVTRHNGQVKVENRIEVNGQTIIYTVVFQAHNGRLKSMRVQATSHHAEDVMRQVIN", "protease stability score": 0.792},
      {"sequence": "DEDHIKTHAEELMNALSRGDEKRFVDLVDPNARFRIGDKEYKGSEQLHTLMREIHTEVDHIEVRHLRVRNGQVQATIRYDINGKTRSMTIHFEVENGRVKHMEVSSQ", "protease stability score": 1.3},
      {"sequence": "DEKEEARELMERLREIIETGNEREAKKLADKDARNNVGDKVLHGREEIVRQLITLYKTADHVDLKFRDYRVDNGKFTMDMKVRFHHNGNTIERRYQMSFDTHNGRLTATRYRNS", "protease stability score": 1.06},
      {"sequence": "EDEELRKMVKQWEKGDPDQLLRYADEDAEFKVGDQQFHGREQLKHYIKRLKHRVDHFQIRKVTREGDRVRIDAFQVVNGRKIVYVFVLEVKNGRLKRLTMDFRDEKDERHFRTMLK", "protease stability score": 0.902},
      {"sequence": "DEELTKRAQKQINVLRTGDEKKVLELMDPNAKLSVGEKEYHGMEDIAKTLAQENRQMRIDVKDMKFTSKGDTVDVTLSYVVDHNGQPDEQVVRVHIVAHNGKIKSQEVRRDS", "protease stability score": -0.762},
      {"sequence": "DERTNTEMLKRLQHALQKNDPNEVRKLFDKDVQVQIGDKTLSGREQLLTEAEQRRKKIDDIEVTDMKSNPDHAVLSVVIKHNGRNRKVIYYIRWSNGKVRKVEERES", "protease stability score": 1.5},
      {"sequence": "DEEDEQKIAKDFVRALERGDEDRVMELADPNVRIVIGDKRYEGREELKKLVRTFKKRADHAEVHSIDIRNGTVIVDYVIHHNGRNSQQYLYVSFNNGRIKSMRVQDG", "protease stability score": 2.07},
      {"sequence": "DEDHLKKFVSDLQHNSHERLSKQADENAEMEVGNKTYSGREQFSHFAQQQYHRADHFTIDRVEIRNGHITLEAVMVVDGHKIRFSAHAELHNGRLKFYVMKATNEDLVRQMNRLNN", "protease stability score": 0.701},
      {"sequence": "DEDKEIRKFIKNNKDILKNGDPREYVRQMDPNAKMQYGDKQVRGNDQLERHLHTKLKRIDSQSVDFKDVDLKGDKIRLRARRTYQFNGRTSSEEFVVVMTFTNGQARVHKINYK", "protease stability score": 0.103},
      {"sequence": "EEKQDTRLEEFVSAVLKGDEQEAVDLADPNADMHIGEWHVRGREQIRKFIDQLRKRIRVQVDEMHVDNQGENVTVRATFVLDHNGVPMEFEIEYRLVVDNGRLKSVHARVPEEVKNRRRR", "protease stability score": 0.294},
      {"sequence": "DEEREKEFATRIATALRTNDPKKMVKNFDENAKFDVGDNRIKGREELKEWVDELHKEFDHIEIHDVQAHNGRAKINLKLEHNGRDTVLDATVVVENGRAKSAKQDQS", "protease stability score": -0.448},
      {"sequence": "DEKQNAEKVMTDVERNLREGDDNKIKEMADKDAKADVGEKKVTGREDIAKMLATLNKSVDEVTLDLKHVTTQGDFLNVKADIKWRHNGTTRQNKVEMWVNDFNGNVVIKHLRIG", "protease stability score": 1.08},
      {"sequence": "DDDQRRKAAQRAHELVKTGDPEEIEKLADKHARIQVGDKRVQGREEAKKIMKEFRERVDHIRISDVQVDGDKIKVDVVVVHNGTKKHVVFVFRVHNGKATEISLEDK", "protease stability score": 0.027},
      {"sequence": "DKTAAHVVHQFLRNVDTGDPKKASDNADPNVTINVGDKEIRGRENLQKEIDKQKKDWRQTVRVTSFKDHNGKVHVDARYTADVNGKPIDDTFQFEMQAHNGKLKYVNVQLDEDKKKEQDS", "protease stability score": 0.032},
      {"sequence": "DEERAAHNALRALEAMLTGDEKKADELADKDVRVNVGDRVYDGDEKMQKFVRELRKRYDHFHFRTYSHDGDKVKANVILNVNGRNVEIIFYLHAHNGKLKSVRVEVRNPELLKNLTS", "protease stability score": 1.23},
      {"sequence": "DEENEKFARRYLEALKHNNPHEMQNMIDPNATLNVGDTRIDGDDQAKKFWSKKLQEISISIRKVSVEVSGNRIDIDAEYELEHNGKPDVNRRTVHLNVKNGKITDLKVRHDK", "protease stability score": -0.063},
      {"sequence": "EEEKLQKVAKEMFDAVQKGNVDKLKKLGKEDVEFQFVDHRVKGADHYLQIMKKQLDHGVQFEIKQAQVKDNTVTMTTQVQYGDKTVRVEAKAEYDGGRLQRAEVKLTEEAKEAQKKG", "protease stability score": -0.026},
      {"sequence": "DEEAAKRAEEYLKALRSGNPDDLKKQIDPNASYQIGDKRVHGREQQATLAHNLQHNMRMEWELKDYRVQGNSVTLEIDVVIEHNGRPEKFKADVRVTFHNGKIQEMTVREDK", "protease stability score": 0.051},
      {"sequence": "DENTQKQIAKKVVDVIRNGDPKQLHDLFDPNARLNIGDRTYTGSKEFQKHAETLRRNVDHIQVKSIDVQGEHIHINMVLNVNGKQYNANFRVDVHNGKAKQMSVEYRDKEEYKTLKR", "protease stability score": 0.362}
    ]}
  ]
}
